In PMC11724247 one finds Kd data, which are given here for two substances.

Assay [1] deals with recombinant cynomolgus FcεRIα (cynomolgus monkey (Macaca fascicularis)). The assay is described as follows: SPR. A general note: In SPR one partner is held on a chip, and binding of the other changes the refractive index at the surface.
In assay [2] the target is recombinant human FcεRIα (human) (UniProt P12319). Put plainly: SPR.

Usually Kd stands for the free concentration of one partner at which half of the binding sites on the other are occupied at equilibrium, for simple one-to-one binding. As to recombinant human IgE (antibody), the dissociation constant (Kd) was 1 nM in assay [1] and 0.00839 nM in assay [2].
On the same counts, the results for “recombinant cynomolgus IgE Fc (Cε1-4) (domain or fragment)” are 1.4 nM and 0.00673 nM.
